doi:10.1101/2023.09.18.557803, “Structure of the portal complex from Staphylococcus aureus pathogenicity island 1 transducing particles in situ and in solution” (bioRxiv, 2023)

Legend:
[1] = target: bacteriophage 80α portal protein (gp42), expressed in E. coli with a C-terminal hexahistidine tag (Staphylococcus aureus bacteriophage 80α); assay: cryo-EM structure; portals expressed in E. coli, in solution (25 mM HEPES pH 7.4, 0.1 M NaCl); 2D classification and C13 reconstruction in RELION-3, 2.4 Å
[2] = target: bacteriophage 80α portal protein (gp42) in situ in SaPI1 virions (Staphylococcus aureus bacteriophage 80α); assay: cryo-EM structure; focused reconstruction with C12 symmetry of the portal complex in situ in purified full and empty SaPI1 virions (assembled in S. aureus), after signal subtraction of the capsid; 3.2 Å (full) and 3.5 Å (empty)
[3] = target: the molecule itself; assay: cryo-EM structure; icosahedral reconstruction of full and empty capsids of purified SaPI1 virions (assembled in S. aureus); 3.1 Å (full, used to model CP) and 3.2 Å (empty)

## bacteriophage 80α portal protein (gp42), expressed in E. coli with a C-terminal hexahistidine tag (natural protein)
[1]
  stoichiometry N: 13

## bacteriophage 80α portal protein (gp42) in situ in SaPI1 virions (natural protein)
[2]
  stoichiometry N: 12

B1: bacteriophage 80α capsid protein (gp47) in mature SaPI1 capsids (natural protein, Staphylococcus aureus bacteriophage 80α, UniProt A4ZFB3 15-324, looked up)
chain: ASNNVKPQVFNPDNVMMHEKKDGTLMNEFTTPILQEVMENSKIMQLGKYEPMEGTEKKFTFWADKPGAYWVGEGQKIETSKATWVNATMRAFKLGVILPVTKEFLNYTYSQFFEEMKPMIAEAFYKKFDEAGILNQGNNPFGKSIAQSIEKTNKVIKGDFTQDNIIDLEALLEDDELEANAFISKTQNRSLLRKIVDPETKERIYDRNSDSLDGLPVVNLKSSNLKRGELITGDFDKLIYGIPQLIEYKIDETAQLSTVKNEDGTPVNLFEQDMVALRATMHVALHIADDKAFAKLVPADKRTDSVPGEV
notes: capsid protein gp47 of Staphylococcus aureus bacteriophage 80α, cut product: the first 14 residues are removed by the Prp protease; domains printed as N-arm 15-67, E-loop 68-104, P-domain 105-167 and 248-307, A-domain 168-247 and 308-324; residues 16-313 modelled; 240 copies in the icosahedral T=4 capsid; in the real virion five subunits at one vertex are replaced by the portal; also called CP; …
[3]
  stoichiometry N: 240
